Results from patent US20120058906A1 (published 2012).

What was measured:
[1] = target: T1, rHuman ErbB2/Fc Chimera, CF (R&D Systems Cat#1129-ER) (human, UniProt P04626 23-652); assay: MSD ECL multi-spot assay, antigen spotted on plate, Fab 0.03 uM; blank spot 373;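 note: blank spot per well as comparator with Hit at signal to blank ratio of 4 or more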
T1 construct: Bought protein; also called HER2/neu; human epidermal growth factor 2 receptor; Fc part of the bought chimera not given

[2] = target: T2, rHuman EGF R/Fc Chimera, CF (R&D Systems Cat#344-ER) (human, UniProt P00533 25-645); assay: as above
T2 construct: Bought protein; also called epidermal growth factor receptor; Fc part of the bought chimera not given

[3] = target: T3, rHuman HGF R/c-MET/Fc Chimera, CF (R&D Systems Cat#358-MT/CF) (human, UniProt P08581 25-932); assay: as above
T3 construct: Bought protein; also called HGF R/Fc; hepatocyte growth factor receptor; Fc part of the bought chimera not given

[4] = target: T4, rHuman Notch-1/Fc Chimera, CF (R&D Systems Cat#3647-TK) (human, UniProt P46531 19-526); assay: as above
T4 construct: Bought protein; Fc part of the bought chimera not given

[5] = target: T5, rHuman CD44/Fc Chimera, CF (R&D Systems Cat#3660-CD) (human, UniProt P16070 21-220); assay: as above
T5 construct: Bought protein; Fc part of the bought chimera not given

[6] = target: T6, rHuman IGF-1 sR (IGF-1 sR), CF (R&D Systems Cat#391-GR) (human, UniProt P08069 31-932); assay: as above
T6 construct: Bought soluble receptor; also called insulin-like growth factor-1 soluble receptor; IGF-R1

[7] = target: T7, rHuman P-Cadherin/Fc Chimera, CF (R&D Systems Cat#861-PC) (human, UniProt P22223 108-654); assay: as above
T7 construct: Bought protein; also called CDH3; Fc part of the bought chimera not given

[8] = target: T8, rHuman Erythropoietin R/Fc Chimera, CF (R&D Systems Cat#963-ER) (human, UniProt P19235 25-250); assay: as above
T8 construct: Bought protein; also called EPOR; EPO R/Fc; Fc part of the bought chimera not given
T8 sequence: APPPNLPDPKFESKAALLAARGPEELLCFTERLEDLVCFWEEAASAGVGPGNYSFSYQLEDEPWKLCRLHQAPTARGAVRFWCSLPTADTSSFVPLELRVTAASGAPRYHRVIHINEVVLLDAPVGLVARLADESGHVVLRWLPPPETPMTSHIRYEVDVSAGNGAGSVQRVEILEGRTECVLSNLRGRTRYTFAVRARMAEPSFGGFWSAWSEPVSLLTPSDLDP

[9] = target: T9, Recombinant Human DLL4 (R&D Systems Cat#1506-D4/CF) (human, UniProt Q9NR61 27-524); assay: as above
T9 construct: Bought protein; also called delta-like protein 4; rHuman DLL4

[10] = target: T1, rHuman ErbB2/Fc Chimera, CF (R&D …); assay: MSD ECL multi-spot assay, antigen spotted on plate, Fab 0.36 uM; blank spot 928;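 note: blank spot per well as comparator with Hit at signal to blank ratio of 4 or more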
[11] = target: T2, rHuman EGF R/Fc Chimera, CF (R&D …); assay: as above
[12] = target: T3, rHuman HGF R/c-MET/Fc Chimera, CF (R&D …); assay: as above
[13] = target: T4, rHuman Notch-1/Fc Chimera, CF (R&D …); assay: as above
[14] = target: T5, rHuman CD44/Fc Chimera, CF (R&D Systems …); assay: as above
[15] = target: T6, rHuman IGF-1 sR (IGF-1 sR), CF (R&D …); assay: as above
[16] = target: T7, rHuman P-Cadherin/Fc Chimera, CF (R&D …); assay: as above
[17] = target: T8, rHuman Erythropoietin R/Fc Chimera, CF …; assay: as above
[18] = target: T9, Recombinant Human DLL4 (R&D Systems …); assay: as above
[19] = target: T1, rHuman ErbB2/Fc Chimera, CF (R&D …); assay: MSD ECL multi-spot assay, antigen spotted on plate, Fab 0.65 uM; blank spot 441
[20] = target: T2, rHuman EGF R/Fc Chimera, CF (R&D …); assay: as above
[21] = target: T3, rHuman HGF R/c-MET/Fc Chimera, CF (R&D …); assay: as above
[22] = target: T5, rHuman CD44/Fc Chimera, CF (R&D Systems …); assay: as above
[23] = target: T6, rHuman IGF-1 sR (IGF-1 sR), CF (R&D …); assay: as above
[24] = target: T7, rHuman P-Cadherin/Fc Chimera, CF (R&D …); assay: as above
[25] = target: T9, Recombinant Human DLL4 (R&D Systems …); assay: as above
[26] = target: T2, rHuman EGF R/Fc Chimera, CF (R&D …); assay: MSD ECL multi-spot assay, antigen spotted on plate, Fab 0.25 uM; blank spot 3693
[27] = target: T6, rHuman IGF-1 sR (IGF-1 sR), CF (R&D …); assay: as above
[28] = target: T7, rHuman P-Cadherin/Fc Chimera, CF (R&D …); assay: as above
[29] = target: T8, rHuman Erythropoietin R/Fc Chimera, CF …; assay: as above
[30] = target: T9, Recombinant Human DLL4 (R&D Systems …); assay: as above
[31] = target: T2, rHuman EGF R/Fc Chimera, CF (R&D …); assay: MSD ECL multi-spot assay, antigen spotted on plate, Fab 1.19 uM; blank spot 11543
[32] = target: T4, rHuman Notch-1/Fc Chimera, CF (R&D …); assay: as above
[33] = target: T6, rHuman IGF-1 sR (IGF-1 sR), CF (R&D …); assay: as above
[34] = target: T7, rHuman P-Cadherin/Fc Chimera, CF (R&D …); assay: as above
[35] = target: T8, rHuman Erythropoietin R/Fc Chimera, CF …; assay: as above
[36] = target: T9, Recombinant Human DLL4 (R&D Systems …); assay: as above

B1: Fab VH2-5_IGHD7-27*01_IGHJ2*01 & L2_IGKJ1*01 (Fab, V domains shown)
VH: QITLKESGPTLVKPTQTLTLTCTFSGFSLSTSGVGVGWIRQPPGKALEWLALIYWNDDKRYSPSLKSRLTITKDTSKNQVVLTMTNMDPVDTATYYCAHRPNWGYWYFDLWGRGTLVTVSS
VL: not shown
ECL signal [1]: 2560 | ECL signal [2]: 381 | ECL signal [3]: 311 | ECL signal [4]: 563 | ECL signal [5]: 421 | ECL signal [6]: 344 | ECL signal [7]: 352 | ECL signal [8]: 492 | ECL signal [9]: 476

B2: Fab VH1-46_IGHD7-27*01_IGHJ2*01 & A27_IGKJ1*01 (Fab, V domains shown)
VH: QVQLVQSGAEVKKPGASVKVSCKASGYTFTSYYMHWVRQAPGQGLEWMGIINPSGGSTSYAQKFQGRVTMTRDTSTSTVYMELSSLRSEDTAVYYCARANWGYWYFDLWGRGTLVTVSS
VL: not shown
notes: Fab from E. coli; VH joined to the CH1 (Flag and His tags) of Plasmid A, VL to the kappa CL of Plasmid C
ECL signal [10]: 1470 | ECL signal [11]: 1400 | ECL signal [12]: 1220 | ECL signal [13]: 1920 | ECL signal [14]: 1540 | ECL signal [15]: 1080 | ECL signal [16]: 1800 | ECL signal [17]: 2430 | ECL signal [18]: 9080

B3: Fab VH1-69_IGHD1-1*01_IGHJ6*01 & A17_IGKJ1*01 (Fab, V domains shown)
VH: QVQLVQSGAEVKKPGSSVKVSCKASGGTFSSYAISWVRQAPGQGLEWMGGIIPIFGTANYAQKFQGRVTITADKSTSTAYMELSSLRSEDTAVYYCARGYNWNDDYYYYYGMDVWGQGTTVTVSS
VL: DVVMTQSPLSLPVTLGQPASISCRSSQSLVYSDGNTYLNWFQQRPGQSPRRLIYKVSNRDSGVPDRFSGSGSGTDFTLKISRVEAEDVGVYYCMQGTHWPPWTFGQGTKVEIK
notes: as for B2
ECL signal [19]: 2940 | ECL signal [20]: 662 | ECL signal [21]: 437 | ECL signal [22]: 797 | ECL signal [23]: 656 | ECL signal [24]: 695 | ECL signal [25]: 849

B4: Fab VH1-46_IGHD2-15*01_IGHJ2*01 & L2_IGKJ1*01 (Fab, V domains shown)
VH: QVQLVQSGAEVKKPGASVKVSCKASGYTFTSYYMHWVRQAPGQGLEWMGIINPSGGSTSYAQKFQGRVTMTRDTSTSTVYMELSSLRSEDTAVYYCAREGYCSGGSCYSYWYFDLWGRGTLVTVSS
VL: not shown
ECL signal [26]: 88000 | ECL signal [27]: 4930 | ECL signal [28]: 16100 | ECL signal [29]: 30100 | ECL signal [30]: 14700

B5: Fab VH1-46_IGHD6-13*01_IGHJ4*01 & L2_IGKJ1*01 (Fab, V domains shown)
VH: QVQLVQSGAEVKKPGASVKVSCKASGYTFTSYYMHWVRQAPGQGLEWMGIINPSGGSTSYAQKFQGRVTMTRDTSTSTVYMELSSLRSEDTAVYYCAREGYSSSWYDYFDYWGQGTLVTVSS
VL: not shown
ECL signal [31]: 32000 | ECL signal [32]: 41700 | ECL signal [33]: 14100 | ECL signal [34]: 34600 | ECL signal [35]: 141000 | ECL signal [36]: 39600
